Measured values taken from article PMC9276948.

Target: GST-MoMkk1 (Magnaporthe oryzae) (UniProt G4N6Z6)
Experiment: MST

Substance | Kd [µM]
His-MoPtc1 (enzyme) | 1.05
His-MoPtc2 (enzyme) | 2.27
